From PMC12806483, “Dual role of ramR mutation in enhancing immune activation and elevating eravacycline resistance in Klebsiella pneumoniae”

Key:
Test in all cases: EMSA; 2 uM protein, 200 nM DNA
Conditions in all cases: protein: recombinant; tags: N-terminal His6; chain copies: 2; label: none (NA-Green stain); blunt
RamR L58P = RamR L58P (Klebsiella pneumoniae, UniProt A0A0H3GJQ8 1-194, L58P)
RamR I141T = RamR I141T (Klebsiella pneumoniae, UniProt A0A0H3GJQ8 1-194, I141T)
RamR WT = RamR WT (Klebsiella pneumoniae, UniProt A0A0H3GJQ8 1-194)

B1: ramA promoter probe (ramA P-F/ramA P-R) (dsDNA)
DNA 1: AAAACGAATCGTCCTGCATGCCCAGGCAGCACCGCGCGAGCGCGCAGGTCGTCGGCAGCCTGAGCCGTTTCATCCGGCATCATGTGGATATATTTCCAGTC
DNA 2: GACTGGAAATATATCCACATGATGCCGGATGAAACGGCTCAGGCTGCCGACGACCTGCGCGCTCGCGCGGTGCTGCCTGGGCATGCAGGACGATTCGTTTT
B1: no binding (RamR L58P); binds (RamR I141T); binds (RamR WT).
